The supplement of paper PMC9170038

What was measured:
MS2 coat protein [1] = experiment: apparent KD of MS2 coat protein, switch ON state; designed switch direction (-1 OFF switch, 1 ON switch): 1; higher = weaker reporter binding; conditions: FMN input: 0 or 200 uM; Eterna round: R93 (includes R88 designs)
Method in brief: (§1)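 SNAP-549-labelled MS2 coat protein was titrated onto designed RNA switches that had been transcribed on-chip from Illumina sequencing clusters. Amounts doubled from 0.7 or 1.5 nM to 3 µM in 100 mM Tris-HCl pH 7.5, 80 mM KCl, 4 mM MgCl2, with constant ligand or without. Apparent KD is the median per design of normalised cluster binding-curve fits.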

MS2 coat protein [2] = experiment: apparent KD of MS2 coat protein, switch OFF state (with FMN for OFF switches, without FMN for ON switches); designed switch direction (-1 OFF switch, 1 ON switch): 1; higher = weaker reporter binding; conditions: FMN input: 0 or 200 uM; Eterna round: R93 (includes R88 designs)
Method in brief: as §1

Sequence	apparent KD of MS2 coat protein (MS2 coat protein [1])	apparent KD of MS2 coat protein (MS2 coat protein [2])
AGAAGACAUGAGGAUCACCCAUGUGGGAAUAUGGGAGGAUAUACAAAGACGAGAGUCAGAGUAGAAGGCCUAGGCC [salish99-ss1-110]	49.8 nM	131 nM
AGCCGCACUAUACAGGAUAUCACAAUAUCGACAUGAGGAUCACCCAUGUGACUGGCACCAGUCGGUGAGAAGGGUGAAGUGCGGC [Raarati]	90.6 nM	421 nM
AGGAAACAUGAGGAUCACCCAUGUAAAAAAGUGGGAGGAUAUACUAGAAGAAACAAAAUAGUAGAAGGCCUAAAAA [75%, Ex sub1, 32]	9.99 nM	108 nM
AGGAAACAUGAGGAUCACCCAUGUAAAAAUAUGGAAGGAUAUGGAAACACGAAAGUGAAACCAGAAGGUCCGAAAA [77%, Mat - Mod of Eli, 19]	13.1 nM	23.1 nM
AGGAAACAUGAGGAUCACCCAUGUAAAAAUAUGGGAGGAUAUGCGAAAAGAAACAAAGAAGCAGAAGGCCUAAGAA [75%, Ex5 sub 1, 7]	11.9 nM	155 nM
AGGAAACAUGAGGAUCACCCAUGUAGAAAUAUGGGAGGAUAUCGGAAUAAAAUAAAGAAACGAGAAGGCCUAAAAG [59%, Flamingo, 3]	38.8 nM	324 nM
AGGAGACAUGAGGAUCACCCAUGUGAGAAGAGGCGAGGAUAUCGAAAAAAAAAAAAAAAACGAGAAGGCGCGAGAA [SameState1]	35.4 nM	58.2 nM
AGGAGACAUGAGGAUCACCCAUGUGAGAAGAGGCGAGGAUAUCGAAAAAAAAAAAAAAAACGAGAAGGCGCGAGAA [salish99-SS1-002]	35.4 nM	58.2 nM
AGGAGACAUGAGGAUCACCCAUGUGAGAAGAGGCGAGGAUAUCGAAAGAAAGAAGAGAAACGAGAAGGCGCGAGUU [salish99-SS1-022]	25.5 nM	33.8 nM
AGGCAACAUGAGGAUCACCCAUGUCGCAACAAUCAAGGAUAUGGGAGAAAUAAGAAAAUACCAGAAGGUGAAAUAA [Telelabe]	60.7 nM	92 nM
AUAAAAACGUAUGAGGAUAUCCAAAAUAAAACAUGAGGAUCACCCAUGUGAAUAAAAUAACAAUGGGAGAAGGCAUACGUAUCAU [SS 2 M 53]	12.5 nM	28.8 nM
AUAAAACAUGAGGAUCACCCAUGUAGAAAUAUGGGAGGAUAUACAAAGACGAAAGUCGAAGUAGAAGGCCUAAAAG [Mat - Same State 1 - Meechl mod - D117]	27.4 nM	68.3 nM
AUAAAACAUGAGGAUCACCCAUGUAGAAAUAUGGGAGGAUAUACUAGAUCGAAAGAUCUAGUAGAAGGCCUUAAAG [JL Mod of Eli 3]	31.7 nM	52.6 nM
AUAAAAUAAAAUGAGGAUAUCUAUAAUAAAACAUGAGGAUCACCCAUGUUUAAACAAAGAUCAUGGGAGAAGGCAUAAAAUAAAU [SS2 M 40]	15.9 nM	14 nM
AUAAAAUACUGUGAGGAUAUCCAUAAUAAAACAUGAGGAUCACCCAUGUGUAGAUAAUAAUAAUGGGAGAAGGCACAUAAUAAUA [Mat - Same state - Mayanna Mod - D101]	15.7 nM	41 nM
AUAAAUAAAAGAGAGGAUAUCCAAAAGAAAACAUGAGGAUCACCCAUGUGAAAGAAAAUAAAAUGGGAGAAGGCUCACAAUAAUA [Topaz 32]	23 nM	26 nM
AUAAAUAAAAUAGAGGAUAUCCAAAACAAAACAUGAGGAUCACCCAUGUAAAAGAAAAUAAAAUGGGAGAAGGCUACAAAUAAAU [SS2 M 3]	20.1 nM	30.5 nM
AUAAAUAAAAUCGAGGAUAUCCAAUAAUAAACAUGAGGAUCACCCAUGUAAAAGAAAAUAUAAUGGGAGAAGGCGAAUAAUAAAU [JR_SS002_Sub1701]	16.3 nM	20 nM
AUAACACAUGAGGAUCACCCAUGUAGAAAUAAGGGAGGAUAUACAAAGACGAAAGUCAAAGUAGAAGGCUCAAAAG [76%, Meechl 4]	14.8 nM	18.6 nM
AUAGGGACGUCGGAGGAUAUUCGAUGUAAAACAUGAGGAUCACCCAUGUGAAUAAAAUAAACAUGGAAGAAGGCCGACGUGCCAU [SS 2 M 54]	10.3 nM	13.3 nM
AUAUAAAUAAGGUAGGAUAUACUAAAGUAAACAUGAGGAUCACCCAUGUAAAGAAAGAAACUCAUGUAGAAGGACCAUAUAUAUA [viburnum 1]	24.4 nM	264 nM
AUAUAUAUAAGACAGGAUAUCCGAAAGUAAACAUGAGGAUCACCCAUGUAAAGAAAGAAACUCAUGGAGAAGGGUCAAUAUAUAU [Mat - Same State 2 - Tesla mod - D84]	22.4 nM	65.6 nM
AUAUAUAUAAGGUAGGAUAUCCAAAAGUAAACAUGAGGAUCACCCAUGUAAAAAAUCUAAAAAUGGGAGAAGGACCAUAUAUAUA	19 nM	37.1 nM
AUAUAUAUAAGGUAGGAUAUCCAAAAGUCCACAUGAGGAUCACCCAUGUAAAGAAAGAAAAAAUGGGAGAAGGACCAUAUAUAUA [77%, More Tesla, 5]	18.7 nM	42.1 nM
AUCUAACAUGAGGAUCACCCAUGUAUUCAAAAACAAGGAUAUAUAACAAACAAACAACAAAUAGAAGGUGUAAAUA [Default title]	19 nM	19.6 nM
AUUUUACAUGAGGAUCACCCAUGUUUUGGUGGAUCAGGAUAUAAAUUGAAUGAGUUUUAGUUAGAAGGGAUAUAUA [JR_SS001_Sub505]	78.4 nM	54 nM
CAACAGAGAGGACAGGAUAUGUCGUGAUAAACAUGAGGAUCACCCAUGUGAGACAUCACGUAGUCGCAGAAGGGUCCCGUCUUAC [Esleerandi]	15.3 nM	18.8 nM
CAUCAUGCGCCUAAGGAUAUGUCUCACAAGACAUGAGGAUCACCCAUGUAGAAUAAAUAAAUGAUGCAGAAGGUGGAGUGCAUGC [Rierre]	72.1 nM	334 nM
CAUCAUGCGCCUAAGGAUAUGUCUCACAAGACAUGAGGAUCACCCAUGUAGACAAAAUAAGCGAUGCAGAAGGUGGAGCGCAUGC [Rasoer]	83.1 nM	348 nM
CAUCAUGCGCCUAAGGAUAUGUCUCACAAGACAUGAGGAUCACCCAUGUAUAAUAAAUAAAUGAUGCAGAAGGUGGAGUGCAUGC [Latibe]	87.7 nM	245 nM
